Experimental data reported in the RNAGym collection of RNA variant scans (doi:10.1073/pnas.2313332121).
This sample holds only a part of the variants without activity.

B1: TPR 5TU (parent)
chain: GGAUCUUCUCGAUCUAACAAAAAAGACAAAUCUGCCACAAAGCUUGAGAGCAUCUUCGGAUGCAGAGGCGGCAGCCUUCGGUGGCGCGAUAGCGCCAACGUUCUCAACUAUGACACGCAAAACGCGUGCUCCGUUGAAUGGAGUUUAUCAUG

Variants of: B1
Assay: polymerase ribozyme fitness, log enrichment relative to wild type (log ratio); higher = more active; in vitro selection for triplet polymerase activity
Summary of the method: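 Streptavidin-bead capture of gel-excised extended constructs, followed by RT-PCR, closed a single triplicate in vitro selection round. That round began by annealing PCR-built, transcribed mutant libraries of each subunit of a heterodimeric triplet polymerase ribozyme with a biotinylated primer, the partner subunit and triplets, then incubating them frozen at −7 °C. After Illumina sequencing of inputs and outputs, genotypes needed ≥10 input reads and ≥1 read per output. Fitness is the base-2 logarithm of genotype enrichment over wild-type enrichment, using inverse-variance-weighted replicate averages.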

Variant | polymerase ribozyme fitness (log ratio)
A29G G94U C114U G128A | ≤ -4.2
U53A C96U C118A | -1.21
G48C A89U A106U A107C A120G U139G | ≤ -4.2
A24G C35U | -3.09
U15G A37U U56A C57A C123U | -1.55
U55A C96U | -0.113
C14G A26G C27A U44A U45C C72A U151G | ≤ -4.2
C85G A122G C123A | -2.57
U77C G143U | -4.09
G59C G83A C125A | -1.12
C35A G68A C95G C132G | ≤ -4.2
A22C A60U A66U C93U G100C A138G C149A | ≤ -4.2
C69A A89U | -1.41
A12C U61A G84U A97U U145C | ≤ -4.2
U7C C14U U53A C96U U104C C116A G124U U135G | ≤ -4.2
A17G C36G G83C C99U U104G C125U U145C A147C | ≤ -4.2
C87U A113U A122G G136U U144C | -3.67
G74C G80C G92U C103G A106U | ≤ -4.2
G80C A115U | ≤ -4.2
A64G G68U U144A | ≤ -4.2
A52G G84U C118G G128A U144G U145A | ≤ -4.2

Variant | polymerase ribozyme fitness (log ratio)
G11U | -0.242
C27G G46A A64C U77G G88U A121U | ≤ -4.2
A16C C108U A147U | -3.42
U4A C18G A19U U31A U135C | -4.1
A26G C85G G88C C125U G136A | ≤ -4.2
A20U A26C C32U A64C C75G U78G C123U U134C U145C | ≤ -4.2
A23U A30C C35A A106C | ≤ -4.2
A19U C85U A107G | ≤ -4.2
C8U U9A C10U A17G A66G A91C | ≤ -4.2
G50U G140U | -3.88
U82C C131G | -2.45
G86A A89U U144C | -1.64
A47U G71C G83A C118U | ≤ -4.2
A23G G58A C87U A121C | -3.82
U44A U53G | ≤ -4.2
A120U | -0.233
A29U G112C A121G G136U A137G U145A | ≤ -4.2
A20G C43U U55A C85U C96G A98U A107G | ≤ -4.2
A12U C93G | -3.28
C32U A52U G84U | ≤ -4.2
G25U A28C G50C A52C C93G | ≤ -4.2

Variant | polymerase ribozyme fitness (log ratio)
A3U C85G C125A U144A | -3.46
C36U U82A G83A G84A G86U C93A C96U G117U | -3.98
U13G C32U G88C A97U | ≤ -4.2
A16U | -1.62
A20C U55A | -0.798
C18U C32G C51U C87G | ≤ -4.2
C57U G59A G67A C93G | ≤ -4.2
G81A G84A | -0.338
G74C C93U G143U | ≤ -4.2
A24C C54G G74A U82A A89U U146A | ≤ -4.2
A23C C131G U134G | ≤ -4.2
U44A G50A G65C C76G U90G | ≤ -4.2
U7G A39U C69U C95U C129G | ≤ -4.2
U4A U7A G42C G48C A66C G67A C72U U101G | ≤ -4.2
U6G A26U A37C G50C U53A C57A U82G C103G | ≤ -4.2
C96U C125A U144G | -0.161
C38U C43U A73U C79A U90C U148G | ≤ -4.2
A12C C85U | -1.44
C27A G34A G50A A64U U78A G94U A106U G126C U148G | ≤ -4.2
A19U A21U A23U G67C G88A U102C A150G | ≤ -4.2
C27U U145G | -1.39

Variant | polymerase ribozyme fitness (log ratio)
C54A A60G G81A A91U A106U A110G G141C | ≤ -4.2
A19U A22G A52C C114A A142G | ≤ -4.2
A19U C38G C43G G80C C87U C149G | ≤ -4.2
A23G C85A | -2.98
A29C U31G C95A A119G A142C G152U | ≤ -4.2
A60G C85A U104A A142U | -3.14
G11A G83A G94U G128U U145G | ≤ -4.2
A39U U56A G62C C85A C95G U101A C123G G143C | ≤ -4.2
A41G C103G | -1.94
A40G G46U G84U C87U A97U U144A | ≤ -4.2
C18U C36A C38A U55A G84U | ≤ -4.2
U101C U102G A106G | -1.84
A12C A41G C87A A89C U144A | ≤ -4.2
A30G A91U | -4.18
C57A C132U | -0.393
C85G G92C G128A | ≤ -4.2
A20U A22U G67C C79U C99G C118U | ≤ -4.2
G59C G71U G88U A98U C116G G124U | ≤ -4.2
A23U G74U A91U | ≤ -4.2
U78G G117C | ≤ -4.2
A49G U61A G71A U90C G94A A119G | ≤ -4.2
